In patent US20160264649A1:

Legend:
Experiment in all cases: cell-based or functional assay
[1] = molecular target: HIV-1 MGRM-A-004 Env (HIV-1)
[2] = molecular target: HIV-1 MGRM-AE-008 Env (HIV-1)
[3] = molecular target: HIV-1 MGRM-A-006 Env (HIV-1)
[4] = molecular target: HIV-1 MGRM-AG-011 Env (HIV-1)
[5] = molecular target: HIV-1 MGRM-A-014 Env (HIV-1)
[6] = molecular target: HIV-1 MGRM-AG-012 Env (HIV-1)
HIV-1 VLGCA1 Env (HIV-1) = molecular target: HIV-1 VLGCA1 Env (HIV-1)
[7] = molecular target: HIV-1 92TH021 Env (HIV-1)
[8] = molecular target: HIV-1 MGRM-A-009 Env (HIV-1)
[9] = molecular target: HIV-1 MGRM-AE-002 Env (HIV-1)
[10] = molecular target: HIV-1 MGRM-AE-007 Env (HIV-1)
[11] = molecular target: HIV-1 MGRM-AE-006 Env (HIV-1)
[12] = molecular target: HIV-1 94UG103 Env (HIV-1)
[13] = molecular target: HIV-1 MGRM-A-001 Env (HIV-1)
[14] = molecular target: HIV-1 MGRM-A-003 Env (HIV-1)
[15] = molecular target: HIV-1 MGRM-A-012 Env (HIV-1)
[16] = molecular target: HIV-1 MGRM-A-008 Env (HIV-1)
[17] = molecular target: HIV-1 92UG037 Env (HIV-1)
[18] = molecular target: HIV-1 MGRM-A-010 Env (HIV-1)
[19] = molecular target: HIV-1 92WR024 Env (HIV-1)
[20] = molecular target: HIV-1 MGRM-AG-002 Env (HIV-1)
[21] = molecular target: HIV-1 MGRM-A-005 Env (HIV-1)
[22] = molecular target: HIV-1 MGRM-AE-004 Env (HIV-1)
[23] = molecular target: HIV-1 92WR021 Env (HIV-1)
[24] = molecular target: HIV-1 MGRM-A-011 Env (HIV-1)
[25] = molecular target: HIV-1 MGRM-A-013 Env (HIV-1)
[26] = molecular target: HIV-1 MGRM-AE-003 Env (HIV-1)
[27] = molecular target: HIV-1 94KE105 Env (HIV-1)
[28] = molecular target: HIV-1 92RW008 Env (HIV-1)
[29] = molecular target: HIV-1 93WR029 Env (HIV-1)
[30] = molecular target: HIV-1 MGRM-A-007 Env (HIV-1)
[31] = molecular target: HIV-1 93UG077 Env (HIV-1)
[32] = molecular target: HIV-1 92WR020 Env (HIV-1)
[33] = molecular target: HIV-1 92UG031 Env (HIV-1)
[34] = molecular target: HIV-1 MGRM-AE-005 Env (HIV-1)
[35] = molecular target: HIV-1 92WR009 Env (HIV-1)
[36] = molecular target: HIV-1 MGRM-AE-001 Env (HIV-1)
[37] = molecular target: HIV-1 MGRM-AG-009 Env (HIV-1)
HIV-1 CMU02 Env (HIV-1) = molecular target: HIV-1 CMU02 Env (HIV-1)
[38] = molecular target: HIV-1 MGRM-AG-008 Env (HIV-1)
[39] = molecular target: HIV-1 MGRM-AG-001 Env (HIV-1)
[40] = molecular target: HIV-1 MGRM-AG-003 Env (HIV-1)
[41] = molecular target: HIV-1 MGRM-A-002 Env (HIV-1)
[42] = molecular target: HIV-1 MGRM-AG-005 Env (HIV-1)
[43] = molecular target: HIV-1 MGRM-AG-006 Env (HIV-1)
[44] = molecular target: HIV-1 92WR026 Env (HIV-1)
[45] = molecular target: HIV-1 MGRM-AG-013 Env (HIV-1)

For 4838_L06 (PGT-121) (antibody), the IC50 [1] was greater than 50 µg/mL, the IC50 [2] was greater than 50 µg/mL and the IC50 [3] was 0.396 µg/mL. The IC50 [4] was greater than 50 µg/mL, the IC50 [5] was 0.003 µg/mL and the IC50 [6] was greater than 50 µg/mL. It also gave an IC50 (HIV-1 VLGCA1 Env (HIV-1)) greater than 50 µg/mL, an IC50 [7] greater than 50 µg/mL and an IC50 [8] of 0.006 µg/mL. The IC50 [9] was greater than 50 µg/mL, the IC50 [10] was greater than 50 µg/mL and the IC50 [11] was greater than 50 µg/mL. It also gave an IC50 [12] of 2.52 µg/mL, an IC50 [13] greater than 50 µg/mL and an IC50 [14] of 0.435 µg/mL. The IC50 [15] was 0.092 µg/mL, the IC50 [16] was greater than 50 µg/mL and the IC50 [17] was 0.031 µg/mL. For the same substance, the IC50 [18] was 2.44 µg/mL, the IC50 [19] was greater than 50 µg/mL and the IC50 [20] was greater than 50 µg/mL. It also gave an IC50 [21] greater than 50 µg/mL, an IC50 [22] greater than 50 µg/mL and an IC50 [23] of 0.009 µg/mL. It also gave an IC50 [24] greater than 50 µg/mL, an IC50 [25] of 0.387 µg/mL and an IC50 [26] greater than 50 µg/mL. The IC50 [27] was 0.029 µg/mL, the IC50 [28] was 0.003 µg/mL and the IC50 [29] was greater than 50 µg/mL. For the same substance, the IC50 [30] was greater than 50 µg/mL, the IC50 [31] was 0.019 µg/mL and the IC50 [32] was 0.004 µg/mL. It also gave an IC50 [33] greater than 50 µg/mL, an IC50 [34] greater than 50 µg/mL and an IC50 [35] of 1.74 µg/mL. For the same substance, the IC50 [36] was greater than 50 µg/mL, the IC50 [37] was 0.08 µg/mL and the IC50 (HIV-1 CMU02 Env (HIV-1)) was greater than 50 µg/mL.
4858_P08 (PGT-123) (antibody) was tested, and the IC50 [1] was greater than 50 µg/mL, the IC50 [2] was greater than 50 µg/mL and the IC50 [3] was greater than 50 µg/mL. The IC50 [4] was greater than 50 µg/mL, the IC50 [5] was 0.003 µg/mL and the IC50 [6] was greater than 50 µg/mL. It also gave an IC50 [38] of 19.2 µg/mL, an IC50 (HIV-1 VLGCA1 Env (HIV-1)) greater than 50 µg/mL and an IC50 [7] greater than 50 µg/mL. It also gave an IC50 [8] of 0.004 µg/mL, an IC50 [9] greater than 50 µg/mL and an IC50 [39] of 2.51 µg/mL. For the same substance, the IC50 [10] was greater than 50 µg/mL, the IC50 [11] was greater than 50 µg/mL and the IC50 [12] was 0.678 µg/mL. It also gave an IC50 [13] greater than 50 µg/mL, an IC50 [14] of 0.495 µg/mL and an IC50 [15] of 0.192 µg/mL. The IC50 [16] was greater than 50 µg/mL, the IC50 [17] was 0.023 µg/mL and the IC50 [18] was 0.705 µg/mL. For the same substance, the IC50 [40] was greater than 50 µg/mL, the IC50 [19] was greater than 50 µg/mL and the IC50 [20] was greater than 50 µg/mL. The IC50 [21] was greater than 50 µg/mL, the IC50 [22] was greater than 50 µg/mL and the IC50 [23] was 0.005 µg/mL. It also gave an IC50 [24] greater than 50 µg/mL, an IC50 [25] of 0.565 µg/mL and an IC50 [26] greater than 50 µg/mL. It also gave an IC50 [41] of 0.011 µg/mL, an IC50 [27] of 0.024 µg/mL and an IC50 [28] of 0.003 µg/mL. For the same substance, the IC50 [29] was greater than 50 µg/mL, the IC50 [30] was greater than 50 µg/mL and the IC50 [31] was 0.028 µg/mL. For the same substance, the IC50 [32] was 0.002 µg/mL, the IC50 [33] was greater than 50 µg/mL and the IC50 [34] was greater than 50 µg/mL. For the same substance, the IC50 [35] was 15.7 µg/mL, the IC50 [36] was greater than 50 µg/mL and the IC50 [37] was 0.073 µg/mL. For the same substance, the IC50 [42] was 0.149 µg/mL, the IC50 [43] was 0.014 µg/mL and the IC50 (HIV-1 CMU02 Env (HIV-1)) was greater than 50 µg/mL. For the same substance, the IC50 [44] was 0.012 µg/mL and the IC50 [45] was 3.37 µg/mL.
4877_D15 (PGT-122) (antibody) gave an IC50 [1] greater than 50 µg/mL, an IC50 [2] greater than 50 µg/mL and an IC50 [3] greater than 50 µg/mL. For the same substance, the IC50 [4] was greater than 50 µg/mL, the IC50 [5] was 0.007 µg/mL and the IC50 [6] was greater than 50 µg/mL. For the same substance, the IC50 [38] was greater than 50 µg/mL, the IC50 (HIV-1 VLGCA1 Env (HIV-1)) was greater than 50 µg/mL and the IC50 [7] was greater than 50 µg/mL. It also gave an IC50 [8] of 0.012 µg/mL, an IC50 [9] greater than 50 µg/mL and an IC50 [39] of 14.5 µg/mL. It also gave an IC50 [10] greater than 50 µg/mL, an IC50 [11] greater than 50 µg/mL and an IC50 [12] of 2.04 µg/mL. It also gave an IC50 [13] greater than 50 µg/mL, an IC50 [14] of 3.79 µg/mL and an IC50 [15] of 0.257 µg/mL. For the same substance, the IC50 [16] was greater than 50 µg/mL, the IC50 [17] was 0.068 µg/mL and the IC50 [18] was 2.51 µg/mL. It also gave an IC50 [40] of 43.7 µg/mL, an IC50 [19] greater than 50 µg/mL and an IC50 [20] greater than 50 µg/mL. The IC50 [21] was greater than 50 µg/mL, the IC50 [22] was greater than 50 µg/mL and the IC50 [23] was 0.021 µg/mL. It also gave an IC50 [24] greater than 50 µg/mL, an IC50 [25] of 2.47 µg/mL and an IC50 [26] greater than 50 µg/mL. The IC50 [41] was 0.017 µg/mL, the IC50 [27] was 0.056 µg/mL and the IC50 [28] was 0.003 µg/mL. For the same substance, the IC50 [29] was greater than 50 µg/mL, the IC50 [30] was greater than 50 µg/mL and the IC50 [31] was 0.084 µg/mL. For the same substance, the IC50 [32] was 0.009 µg/mL, the IC50 [33] was greater than 50 µg/mL and the IC50 [34] was greater than 50 µg/mL. The IC50 [35] was 42.4 µg/mL, the IC50 [36] was greater than 50 µg/mL and the IC50 [37] was 0.128 µg/mL. It also gave an IC50 [42] of 33.9 µg/mL, an IC50 [43] of 0.028 µg/mL and an IC50 (HIV-1 CMU02 Env (HIV-1)) greater than 50 µg/mL. For the same substance, the IC50 [44] was 0.036 µg/mL and the IC50 [45] was 0.521 µg/mL.
